# Assay results as given in the DeepSol protein solubility set.
# Test: soluble on expression in E. coli; label from the status in PepcDB or PDB records
row,Sequence,soluble on expression in E. coli
1,KTEIHGDSTKATLEEGQQLTLTFISTKLDVAVGSCHSLVANFLDGFLKFQTGSNSAFDVVEVEEPAGPAVLTIGLGHKGRLAVVLDYTRLNAALGSAAYVVEDSGCSSSEEVSFQGVGSGATLVVTTLGESPTAVSA,soluble
2,KYVDGFLIPIAKDKVNKYREIAQKSSQIWKDLGALEYYECIGDDLDIEELVSFKKVVNASEEETVIFSWIVYESKEQRDKVNEAVMNDPRMKEMMETSEYDLFDYRRMSYGGFKTLVSL,not soluble
3,LADYGRTAAVNRVEMRDTELGIVTAGVSYQYVREVFPNASVLKLGMVYPLPMDLIREFASKVTKLIVVEELDAFIEDQVKAAGISVTGKEAIPLCGELTPGRLRAAFGIPGAPQVTVENLPGRPPNMCPGCPHRGVFFTLNQLKAYVTGDIGCYTLGFMPPLNAMDTCVCMGASISSASGIVRVLSDEEKKKVVAVIGDSTFLHTGVNSLMEMAYNKAPATVVILDN,not soluble
4,LALIAGTGALPEELVARLSEPPLVCAMEGFAPERLAVDIPFPIEHLGSLVADLKARGVSEICLAGAVGRPAVDPARIDAATLPLVPVIQQALTSGDDGALRAVMGIFENAGLTVRAAHEIAPDLLMPAGCPTKAQPEPAELADARRGAEIVAAMSAADIGQACVVHRGQALAVESVFGTNWMLGSLGQRPDAGGGVLFKAPKPDQDRRADLPTIGPDT,not soluble
5,LCPDPDDDEGLIVSDSDGMIVDVTEPLPRVTGYSKSELLGMETAALFWLRDGDNHSGHTRAPVSETEGRSHGLLECADGSRITVEQRSYTVRPEAETHVCTTVLFPGDGE,not soluble
6,LDARFSDAESNSGLTKATTDTLEAYLDVNEDGTWEVDNFLKKSVDKQHGWMQIIDSEGNTDYSYGVPKDVPGTYTKKELLSIYKTKKLHNYKLNYWAINIEDKSYLLLSGWKSKSEQLLTSVEKREQKIDSLAHYKSSTIDYIKRKKGAIYLLDSNGKILDSINSTKSERKTMNQLELLKYSSKPWNYKREISVKILNKDRWMVATVPNPVYVTDQEFNKSFLK,not soluble
7,LDSLNELAVFVDTELKIIWANKAALEYMNMGLEKAIGVCLKVAPGISGPLVEHLNLEEIFTTGEKKSGEYTAQDGRVWFAQAIPVPDEQGKIIGILQTCRDVT,not soluble
8,LEKMQAHGLDKVEYKVCTNPGMEPDSLNKIASGGELSRISLAIQMITAQKGSTPTLLFDEVDVGIGGSTAALVGKMLRKLGERLQVFCVTHQPQVAASAHHHFLVTKHSNNNQTFTHISLLKASDKIAEIARMMGGLTITEQTLSHAKELISLSNE,not soluble
9,LFAAIVDNLSDGIYVLQDDRVVYLNERFAQLFGHGDAGSLLMRELDDILPHGEGKEIVGRIHAELLAGEPSSVAWGQPFAHMDGTPVWLEMEARRIRLNGRPAILGVCHDRT,not soluble
10,LIGDKNTTFVEKLNSLAADHQLPQIGFSTSSEPEWQFVKDLTEVDPEHVVKSYNRQAKYHLNKNKQFCIKLRKIGRDELPAFKRITQQTADRLHYHDKSLDFYETLFDTYGKKAKFIFAEINFKEYSESIEKDLNDIQKKLTEIAGADYHNISDLSDFSASAKRHLSEGIKTETALQKRLQEAKKMHQEAKHDIVLVSVALFVIENQEVVYLYSGSDEKYEHLFAPYEIQDTMITEAVKERIPLYNFYGVSGKFDGSDGVLGFKTHFNGYTREMVGSFDFPVQKTKYYFYRLFKKILHRQ,not soluble
11,LINETSRRLNQRLTLTDTMNDLAVRMAESFQAEEVGFFHIDHFENLTLLPGSTAFFKEAKPSDFYNELKEKLYEGEKGVFIGNGQSVFGKAGYGSLMAAPMIQNDRLLGFAVLLKQELYAFTFEMYKLFQALIHHATLAVTNSMLRDRLE,soluble
12,LKCSTVVCVICLEKPKYRCPACRVPYCSVVCFRKHKEQCNPET,soluble
13,LKKKVGIISLGCPKNLVDSEIMLGLLKKNDFEITSDSEEANVIIVNTCGFIESAKEESINTILEMANYKNKNCEMLIVAGCLAQRYKDEIIKEMPEVDAVVGVSGYDEIAKVIEEFYSKKNDKNDKEKAVFHKDTLSVEYLNNERLLSTNSGYAYLKISEGCDNRCTYCAIPYIRGPYRSRKMEDIISEAEFLAGKGVKEVILVAQDVTVYGKDLYGQKKLVELVREVSGIEGIEWIRLLYTYPEEIDEELIKEIANNEKVVKYLDIPIQHASDKILKLMGRRSTSEGIRNILDRLRAEVPDIVLRTSLIVGFPGEDEKDFKILYDFVRKYEFDRLGVFTYSREEGTPAYDLKPQIKKSVKESRRNDIMQLQKEIVQRKNESRLEKVYKTLVEGVSEDGIFYYGRTYAEAPDIDGSVYFTSAEPLKFGEFVNVKVLNIDDYDLIGEVINESSK,soluble
14,LLFLSRERGPSQSTPSLISSAAPTMIKMEVNGHGKAMALGEGPPLPAGVQVPAGPQTVMGPGLAPMLAPPPRRTPKQHNCQSCGKTFSSASALQIHERTHTGEKPFGCTICGRAFTTKGNLKVHMGTHMWNNAPARRG,soluble
15,LLSDYYHKRFGVDTRSVRFPGLISNVTLPGGGTTDYAVDIYYAAVKEGRFTCPIKEGTYMDMMYMPDALRACVELMEADPARLVHRNSFNITAMSFEPSQIAAAVKKLVPDFVMNYEVDPLRQGIAESWPNSLDDSCARSEWDWKPDYDLDSMSADMIQILKARYGK,not soluble
16,LQNKFKKYSKIPTGNGMTGRDVAIKMLQDNGIYDVQVTHTPGQLTDHYNPANKTVNLSEGVYDSNSIMAAAVAAHECGHAVQHARAYAPLTLRSK,not soluble
17,LRLWALTATECRLLLSTRWNVGRLYQLPVAASAEFASYQTQRDQLRQTFKNIASEILNPDDPRTDLPFHIALSVIEMRSNDGVVPEPLRDDE,not soluble
18,LTDIRKKAATTLEKQIKQELNQLYMEKAIFSVHFESDKTELTESGQDSVVFYMSTNPGEPLKPLAKIASGGELSRMMLALKTIFSRHQGITSIIFDEVDTGVSGRVGQAIAEKIYAVSVGSQVLCISHLPQVAAMANHHYYITKKVQNKRTTTSVTILKGEQKVEEISRMIAGIEVTELTKQHAKEMIQQAEKVKQTY,not soluble
19,LTELYDAIPASIIIIDERMRLIGWNRFSRDTINGLSDNEMPGINPMKRVHPDDLPEMIRKMRNVIDLDIELSAEFRMYHKSGPPYKWAMCRGKRTIIEGKTCVVAVVTEIT,not soluble
20,LTNRGLKQVGWYLPAAQKTKKTAIVVHGFTNDKEDMKPYAMLFHDLGYNVLMPDNEAHGESEGNLIGYGWNDRLNVMAWTDQLIKENPESQITLFGLSMGAATVMMASGERLPAQVTSLIEDCGYASVWDELKFQAKAMYNLPAFPLLYEVSALSKIRAGFSYGEASSVKQLAKNKRPTLFIHGDKDDFVPTKMVYDNYKATKGPKEILIVKGAKHAKSFETNPEQYQKKIAAFLKKVEK,not soluble
21,LTSSNALRGDAHSRLAAHRGLLERTSRTTRVAGILRDAIIDGTFRPGARLSEPDICAALDVSRNTVREAFQILIEDRLVAHELNRGVFVRVPTAEDITELYICRRVVECAGVNGFDPATGDLSRVAEALDLADERYAVEDWTGVGTADIHFHSALASLNNSNRIDELMRSVWNEARLVFHVMDDAHRFHGPYLTRNHEIYDALAAGNTEAAGQLLKTYLEDAEAQILGAYRPVSG,soluble
22,LTVSARDAPTKISTLAVKVHGGSRYATKDGVAHLLNRFNFQNTNTRSALKLVRESELLGGTFKSTLDREYITLKATFLKDDLPYYVNALADVLYKTAFKPHELTESVLPAARYDYAVAEQCPVKSAEDQLYAITFRKGLGNPLLYDGVERVSLQDIKDFADKVYTKENLEVSGENVVEADLKRFVDESLLSTLPAGKSLVSKSEPKFFLGEENRVRFIGDSVAAIGIPVNKASLAQYEVLANYLTSALSELSGLISSAKLDKFTDGGLFTLFVRDQDSAVVSSNIKKIVADLKKGKDLSPAINYTKLKNAVQNESVSSPIELNFDAVKDFKLGKFNYVAVGDVSNLPYLDEL,soluble
23,LVPRGSDSSRRQYQEKYKQVEQYMSFHKLPADFRQKIHDYYEHRYQGKMFDEDSILGELNGPLREEIVNFNNRKLVASMPLFANADPNFVTAMLTKLKFEVFQPGDYIIREGTIGKKMYFIQHGVVSVLTKGNKEMKLSDGSYFGEISLLTRGRRTASVRADTYSRLYSLSVDNFNEVLEEYPMMRRAFETVAIDRLDRIGKKN,soluble
24,LWGIFVEQADGHYRVRLRSKIHPINEIAKEHDGGGHPLASGANSYSLEENEIIY,soluble
25,MAAKRPPASTLKWCQQEMGPICEGIGMVVRSQIGYDGRRIEKQIRRKALQTVVMGGQDVDPLKEPNKTNAPLLSPTLPSTNEALQRARVVAAGIETFAKLMSQGTYPGSAGFTVSETGERKYMKQTSPVQSNIVANLMATADKLSKGVISLAPFPLPTITKLGTWVIANPTAQLPIPPQLKSAIPAIGQIETLIQSILGVQGPVSSVSRAPRKLKLEGVTDQVVLEPETIHATVDVEPIDKTLTKEEAEFLIKAARSVDDDNAETAIFGTQKAKPKVYRPELPKNFEVNLEMGNVHTLTRSNESSVPATRIGRLATFGQLAFGLLGGATAEVTRRTFGIGKRLQEEGIPKNPFLSEANADRIVATLCRVRGAALKLGQMLSIQDSSTVPPALLQIFERVRQSADFMPIKQVHRQMKDAFGDDWREKFEHFDDKPFACASIGQVHKAVLKDGRNVAVKVQYPGVAEGIDSDIDNLVSVLSVGGIFPKGMFLDAFVGVARRELKQECDYEREARAMKKFRELIADWQDVYVPEVIDELSSSRVLTTELVYGKPVDACVEEPQVVRDYIAGKFIELCLKEIFLWRFMQTDPNWSNFFLGKHPKTGEPRLVLLDFGASRAYGKKFVDIYMNIIKSAYDGDKKKIIEYSREIGFLTGYETSVMEDAHVESVMIMGETLASNHPYNFANQDVTMRIQKLIPVMLEHRLTSPPEEIYSLHRKLSGCYLLAAKLKATVSCGGLFHEIHENYVFGEDGIDINID,not soluble
26,MAAKWEKLEGNVGVLTIEVDAKEVNNSIDAAFKKVVKTINVPGFRKGKMPRPLFEQRFGIESLYQDALDIILPKAYGEAIDEAGIFPVAHPEIDIEKFEKNANLIFTAKVTVKPEVKLGEYKGLAVEKVETTVTDEDVENELKSLQERQAELVVKEEGTVENGDTAVIDFEGFVDGEAFEGGKGENYSLAIGSGTFIPGFEEQVIGLKSGESKDVEVSFPEEYHAAELAGKPATFKVTVHEIKTKELPELNDEFAKEADEAVATLDELKAKLRTNLEEGKKHEAEHKVRDEVVELAAANAEIDIPEAMIDTELDRMVREFEQRLSQQGMNLELYYQFTGTDADKLKEQMKEDAQKRVRINLVLEAIIEAENIEVTEEEVTAEVEKMAEMYGMPVDAIKQALGSVDALAEDLKVRKAVDFLVENAA,not soluble
27,MAALIDTGIFFGFYSLKDVHHMDSVAIVVHAVEGKWGRLFVTNHILDETLTLLKYKKLPADKFLEGFVESGVLNIIYTDDEVERKALEVFKARVYEKGFSYTDAISEVVAEELKLKLISYDSRFSLPTIGRDYWKSLDESERKRISAILREKGIDG,soluble
